Where a chain is given by its changes, count along the chain named.
B1: chimeric anti human CD4-antibody (chimeric IgG4) (antibody, V domains shown)
VH: EVQLQQSGTVLARPGASVQMSCKASGYSFANYWMHWVKQRPGQGLQWIGALYPGNVDTTYNQKFKDKAKLTAVTSASTAYMELSSLTNEDSAVYYCTRMGTTLEAPLDYWGQGTTLTVSS
VL: QIVLTQSPAIMSASPGEKVAMTCSARSSVSYLYWYQQKPGSSPRLLIYDTSNLASGVPVRFIGSGSGTSYSLTISRMEAEDAATYYCQQWSDYPLTFGAGTKLELK
notes: Mouse VH and VL were cloned into pANTVhG4 (human genomic IgG4 constant region) and pANTVk (human kappa constant region) and expressed in NS0 cells; also called chimeric anti-CD4 antibody; chimeric antibody
B2: monoclonal mouse anti human CD4-antibody 30F16H5 (antibody, mouse IgG1, V domains shown)
VH: B1 VH
VL: B1 VL
notes: also called Max16H5; Max.16H5
B3: modified anti-CD4 antibody VH3/VK4 (antibody, V domains shown)
VH: B1 VH with T9S, V10E, A12K, Q19K, S28T, R40A, S91T, T115L, L116V
VL: B1 VL with M11L, V19A, V59S, S69D, R76S, L105I
B4: modified anti-CD4 antibody VH2/VK2 (antibody, V domains shown)
VH: EVQLQQSGSELKRPGASVKVSCKASGYTFANYWMHWVKQAPGQGLQWIGALYPGNVDTTYNQKFKDKAKLTADTSASTAYMELSSLTNEDTAVYYCTRMGTTLEAPLDYWGQGTLVTVSS
VL: B1 VL with I10T, M11L, V19A, V59S, I62S, S69D, R76S, L105I
B5: modified anti-CD4 antibody VH1/VK4 (antibody, V domains shown)
VH: B4 VH with K38R, L70I, A72R
VL: B1 VL with M11L, V19A, V59S, S69D, R76S, L105I
B6: modified anti-CD4 antibody VH4/VK2 (antibody, V domains shown)
VH: B4 VH with S9T, V20M, D73V, T91S, L115T
VL: B1 VL with I10T, M11L, V19A, V59S, I62S, S69D, R76S, L105I
B7: modified anti-CD4 antibody VH3/VK2 (antibody, V domains shown)
VH: B4 VH with V20M, D73V
VL: B1 VL with I10T, M11L, V19A, V59S, I62S, S69D, R76S, L105I
B8: modified anti-CD4 antibody VH4/VK4 (antibody, V domains shown)
VH: B4 VH with S9T, V20M, D73V, T91S, L115T
VL: B1 VL with M11L, V19A, V59S, S69D, R76S, L105I
B9: modified anti-CD4 antibody VH4/VK1 (antibody, V domains shown)
VH: B4 VH with S9T, V20M, D73V, T91S, L115T
VL: B1 VL with I10T, M11L, V19A, L45A, V59S, I62S, S69D, R76S, L105I
B10: modified anti-CD4 antibody VH2/VK1 (antibody, V domains shown)
VH: B4 VH
VL: B1 VL with I10T, M11L, V19A, L45A, V59S, I62S, S69D, R76S, L105I
B11: modified anti-CD4 antibody VH1/VK1 (antibody, V domains shown)
VH: B4 VH with K38R, L70I, A72R
VL: B1 VL with I10T, M11L, V19A, L45A, V59S, I62S, S69D, R76S, L105I
notes: VK1=20, VK2=18, VK3=16, VK4=14
B12: modified anti-CD4 antibody VH2/VK4 (antibody, V domains shown)
VH: B4 VH
VL: B1 VL with M11L, V19A, V59S, S69D, R76S, L105I

Experiments:
[1] = biological target: T1, human CD4 (coated on ELISA plate) (human, UniProt P01730 26-396, limits assumed); assay: competition ELISA, plate-coated CD4, competitor biotinylated mouse anti-CD4 at 0.2 µg/ml
Description: The chimeric antibody was tested in an ELISA-based competition assay using mouse anti-CD4 antibody, biotinylated using a B-Tag micro biotinylation kit (Sigma, Poole UK). A dilution series of chimeric IgG4 or control mouse antibody from 10 μg/ml to 0.009 μg/ml was premixed with a constant concentration of biotinylated anti-CD4 (0.2 μg/ml) before incubating 100 μl/well for 1 hour at room temperature in a Nunc MaxiSorp 96 well flat bottom microtitre plate (Fisher, Loughborough, UK) pre-coated with 50 μl/well of 1 μg/ml CD4. The binding of the biotinylated mAb was determined by incubating for 1 h at room temperature with 100 μl/well of a 1/500 dilution of streptavidin-HRP (Sigma), followed by detection with 100 μl/well OPD substrate (Sigma). After stopping the reaction with 50 μl/well 3M HCl, absorbance at 490 nm was measured using a Dynex Technologies (Worthing, UK) MRX TC II plate reader.
Therefore the correct variable region sequences have been identified and cloned.

[2] = biological target: T1, human CD4 (coated on ELISA plate); assay: competition ELISA, plate-coated human CD4, competitor biotinylated mouse antibody at 0.2 µg/ml

Binder	IC50 [1]	Relative Binding (IC50 of test sample divided by IC50 of mouse antibody) [2]
B1	0.25 µg/mL	
B2	0.18 µg/mL	
B3		1.44 fold
B4		0.96 fold
B5		5.06 fold
B6		0.73 fold
B7		1.77 fold
B8		0.49 fold
B9		3.89 fold
B10		8.66 fold
B11		0.14 fold
B12		1.44 fold
